The text below walks through data of article PMC10008561.

Among the targets are human KOR D155A (human) (UniProt P41145); human KOR L253A (human) (UniProt P41145); human KOR R170A (human) (UniProt P41145); human KOR R257A (human) (UniProt P41145).

Gαz fused with Renilla luciferase (Gα-RLuc8), sequence (P19086 whole entry, the tested form may be a part): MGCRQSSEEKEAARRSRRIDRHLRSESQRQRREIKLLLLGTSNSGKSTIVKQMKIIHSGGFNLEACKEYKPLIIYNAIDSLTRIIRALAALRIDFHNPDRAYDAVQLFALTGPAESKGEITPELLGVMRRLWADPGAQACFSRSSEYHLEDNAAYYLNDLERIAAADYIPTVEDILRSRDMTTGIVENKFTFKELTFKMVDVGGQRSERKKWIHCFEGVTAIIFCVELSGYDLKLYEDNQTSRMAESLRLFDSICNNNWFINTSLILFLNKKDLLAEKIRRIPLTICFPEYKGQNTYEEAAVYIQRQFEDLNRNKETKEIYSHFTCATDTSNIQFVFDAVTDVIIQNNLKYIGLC
GαoA fused with Renilla luciferase (Gα-RLuc8), sequence (P09471 whole entry, the tested form may be a part): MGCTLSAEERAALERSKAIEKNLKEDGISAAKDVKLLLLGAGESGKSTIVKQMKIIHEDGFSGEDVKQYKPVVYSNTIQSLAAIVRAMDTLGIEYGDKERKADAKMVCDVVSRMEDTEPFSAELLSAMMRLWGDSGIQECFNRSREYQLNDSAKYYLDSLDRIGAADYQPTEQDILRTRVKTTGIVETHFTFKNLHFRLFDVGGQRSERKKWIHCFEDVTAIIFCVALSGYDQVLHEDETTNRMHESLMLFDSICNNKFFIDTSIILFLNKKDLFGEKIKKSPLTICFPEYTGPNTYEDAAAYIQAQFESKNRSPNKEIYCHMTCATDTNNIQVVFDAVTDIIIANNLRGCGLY
GαoB fused with Renilla luciferase (Gα-RLuc8), sequence (P09471 other isoform, or with tags, fused parts or gaps): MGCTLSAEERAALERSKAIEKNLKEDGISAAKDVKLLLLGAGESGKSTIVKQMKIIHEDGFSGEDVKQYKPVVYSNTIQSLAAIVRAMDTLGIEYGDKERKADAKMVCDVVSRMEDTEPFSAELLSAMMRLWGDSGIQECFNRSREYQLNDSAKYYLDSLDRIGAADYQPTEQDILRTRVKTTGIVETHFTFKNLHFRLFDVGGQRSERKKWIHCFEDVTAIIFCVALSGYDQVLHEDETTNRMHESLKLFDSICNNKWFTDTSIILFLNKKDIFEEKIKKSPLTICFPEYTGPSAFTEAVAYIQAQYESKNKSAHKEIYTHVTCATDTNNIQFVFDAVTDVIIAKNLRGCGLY
Gα gustducin fused with Renilla luciferase (Gα-RLuc8), sequence (A8MTJ3 whole entry, the tested form may be a part): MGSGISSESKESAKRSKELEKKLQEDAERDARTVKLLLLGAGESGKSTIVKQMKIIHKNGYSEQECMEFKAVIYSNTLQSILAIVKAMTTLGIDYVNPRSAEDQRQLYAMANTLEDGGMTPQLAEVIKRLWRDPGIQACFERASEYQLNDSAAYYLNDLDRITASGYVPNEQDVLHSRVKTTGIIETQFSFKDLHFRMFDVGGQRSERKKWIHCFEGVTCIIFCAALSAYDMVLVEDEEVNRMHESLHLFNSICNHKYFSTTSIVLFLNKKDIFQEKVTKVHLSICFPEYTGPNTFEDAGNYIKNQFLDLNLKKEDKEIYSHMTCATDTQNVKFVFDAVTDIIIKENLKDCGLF
Gαi2 fused with Renilla luciferase (Gα-RLuc8), sequence (P04899 whole entry, the tested form may be a part): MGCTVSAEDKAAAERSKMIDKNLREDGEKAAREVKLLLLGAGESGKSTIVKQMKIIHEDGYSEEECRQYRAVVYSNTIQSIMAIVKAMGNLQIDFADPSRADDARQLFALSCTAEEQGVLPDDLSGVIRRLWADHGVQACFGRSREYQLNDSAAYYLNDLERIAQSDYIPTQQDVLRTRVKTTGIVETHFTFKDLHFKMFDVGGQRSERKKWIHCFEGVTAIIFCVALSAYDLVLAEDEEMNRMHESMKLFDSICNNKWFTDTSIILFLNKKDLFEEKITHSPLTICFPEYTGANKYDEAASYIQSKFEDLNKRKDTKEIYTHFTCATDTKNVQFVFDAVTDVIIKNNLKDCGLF
Gαi3 fused with Renilla luciferase (Gα-RLuc8), sequence (P08754 whole entry, the tested form may be a part): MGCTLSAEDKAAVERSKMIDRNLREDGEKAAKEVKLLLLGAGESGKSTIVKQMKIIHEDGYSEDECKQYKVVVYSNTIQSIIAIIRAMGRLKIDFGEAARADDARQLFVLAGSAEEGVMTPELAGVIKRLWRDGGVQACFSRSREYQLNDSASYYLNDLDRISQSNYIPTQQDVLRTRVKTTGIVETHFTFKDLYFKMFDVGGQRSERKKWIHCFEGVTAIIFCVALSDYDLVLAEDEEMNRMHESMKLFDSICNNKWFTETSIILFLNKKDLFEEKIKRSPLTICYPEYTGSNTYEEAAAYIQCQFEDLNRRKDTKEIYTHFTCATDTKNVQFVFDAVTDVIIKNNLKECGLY

With “Gα gustducin fused with Renilla luciferase (Gα-RLuc8) (from UniProt A8MTJ3 1-354) (natural protein)”, the BRET2 G protein activation (TRUPATH); fold decrease of the potency of nalfurafine against wild-type KOR was less than 10 fold with human KOR D155A (human) and 10 fold with human KOR R170A (human). Moreover, the BRET2 G protein activation (TRUPATH) with nalfurafine; fold decrease against wild-type KOR with human KOR L253A (human) and with human KOR R257A (human) was 10 fold throughout.

For the substance “Gαi2 fused with Renilla luciferase (Gα-RLuc8) (from UniProt P04899 1-355) (natural protein)”, the BRET2 G protein activation (TRUPATH); fold decrease of the potency of nalfurafine against wild-type KOR in the experiment with human KOR D155A (human) is less than 10 fold; with human KOR R170A (human), 100 fold. Moreover, the BRET2 G protein activation (TRUPATH) with nalfurafine; fold decrease against wild-type KOR with human KOR L253A (human) and with human KOR R257A (human) was 100 fold throughout.

In the case of “Gαi3 fused with Renilla luciferase (Gα-RLuc8) (from UniProt P08754 1-354) (natural protein)”, the BRET2 G protein activation (TRUPATH); fold decrease of the potency of nalfurafine against wild-type KOR is less than 10 fold in the experiment with human KOR D155A (human) and 100 fold in the experiment with human KOR R170A (human). In addition, the BRET2 G protein activation (TRUPATH) with nalfurafine; fold decrease against wild-type KOR with human KOR L253A (human) and in the experiment with human KOR R257A (human) was 100 fold throughout.

For the substance “GαoA fused with Renilla luciferase (Gα-RLuc8) (from UniProt P09471 1-354) (natural protein)”, the BRET2 G protein activation (TRUPATH); fold decrease of the potency of nalfurafine against wild-type KOR was less than 10 fold in the experiment with human KOR D155A (human) and 10 fold with human KOR R170A (human). Moreover, the BRET2 G protein activation (TRUPATH) with nalfurafine; fold decrease against wild-type KOR in the experiment with human KOR L253A (human) and in the experiment with human KOR R257A (human) was 10 fold in each case.

In the case of “GαoB fused with Renilla luciferase (Gα-RLuc8) (from UniProt P09471-2 1-354) (natural protein)”, the BRET2 G protein activation (TRUPATH); fold decrease of the potency of nalfurafine against wild-type KOR was less than 10 fold with human KOR D155A (human) and 10 fold in the experiment with human KOR R170A (human). The BRET2 G protein activation (TRUPATH) with nalfurafine; fold decrease against wild-type KOR with human KOR L253A (human) and with human KOR R257A (human) was 10 fold in each case.

As for “Gαz fused with Renilla luciferase (Gα-RLuc8) (from UniProt P19086 1-355) (natural protein)”, the BRET2 G protein activation (TRUPATH); fold decrease of the potency of nalfurafine against wild-type KOR with human KOR D155A (human) was less than 10 fold; in the experiment with human KOR R170A (human), 10 fold. Also, the BRET2 G protein activation (TRUPATH) with nalfurafine; fold decrease against wild-type KOR with human KOR L253A (human) and with human KOR R257A (human) was 10 fold each time.
